Type in all cases: biochemical
The subject of series [1] is single-stranded DNA initiator (SEQ ID NO: 7). The series can be described thus: Addition of 3′-O-azidomethyl nucleotide triphosphates to a DNA initiator by TdT orthologs, capillary electrophoresis. To be noted: for performance in adding 3′-O-azidomethyl dTTP and 3′-O-azidomethyl dCTP compared to Bos taurus TdT: 20 min, capillary electrophoresis; for ability to add 3′-O reversibly terminated (blocked) nucleotide triphosphates: 3′-O-azidomethyl nucleotide triphosphate, FIG. 3. The method, then: (A) A single-stranded DNA initiator was incubated with TdT with the indicated species for 60 min in the above mentioned buffer and reaction conditions. Reactions were then analysed by capillary electrophoresis and a subset of chromatograms are shown. (B) Fraction of DNA initiator strand converted to N+1 species (addition of 3′-O-azidomethyl dTTP) in one hour. (C) Three TdT orthologs were reacted with 3′-O-azidomethyl dTTP and 3′-O-azidomethyl dCTP for 20 min.
A single-stranded DNA initiator (SEQ ID NO: 7) was incubated with purified, recombinant TdT orthologs, required salts (50 mM potassium acetate, 20 mM tris acetate pH 7.9, 1.5 mM cobalt chloride, Saccharomyces cerevisiae inorganic pyrophosphatase), and 3′-O-azidomethyl dTTP at 37° C. for 60 min. The 3′-blocked nucleotide triphosphate was at a concentration of 1 mM and the DNA initiator at 200 nM and analysed via capillary electrophoresis as shown in FIG. 3(A).
The experiment was repeated with the exception that both 3′-O-azidomethyl dTTP and 3′-O-azidomethyl dCTP was used as the 3′-blocked nucleotide triphosphate. The reaction was stopped after 20 min and analysed via capillary electrophoresis.

Series [2] has the same test system. The experiment in a line: Engineered versus wild-type Lepisosteus oculatus TdT, addition of 3′-reversibly blocked dNTP measured by PAGE. To be noted: 3′-reversibly blocked dCTP, dGTP or dTTP, 1 mM, 37° C., 20 min. The method, then: Addition of the dNTP was measured by PAGE and the conversion relative to wild-type TdT was plotted.
A single-stranded DNA initiator (SEQ ID NO: 7) was incubated with either a purified wild-type Lepisosteus oculatus TdT or a purified, recombinant engineered form of Lepisosteus oculatus TdT (SEQ ID NO: 8), required salts, cobalt chloride, Saccharomyces cerevisiae inorganic pyrophosphatase, and 3′-O-azidomethyl dTTP at 37° C. for 20 min.

For series [3] the test system is unchanged. The series can be described thus: Engineered Lepisosteus oculatus TdT versus Bos taurus TdT, denaturing PAGE gel. The note with it: 3′-O-azidomethyl dTTP, 37° C., 10 min. The protocol: A single-stranded DNA initiator (SEQ ID NO: 7) was incubated with a purified, recombinant engineered form of Lepisosteus oculatus TdT, required salts, cobalt chloride, Saccharomyces cerevisiae inorganic pyrophosphatase, and 3′-O-azidomethyl dTTP at 37° C. for 10 min.

4 molecules from patent US11807887B2, “Compositions and methods related to nucleic acid synthesis” (Nuclera Ltd., priority 2015, dated 2023) can be followed below.

B1: Lepisosteus oculatus TdT: terminal deoxynucleotidyl transferase sequence from Lepisosteus oculatus (UniProt: W5MK82) (protein, listed as Lepisosteus oculatus)
chain: MLHIPIFPPIKKRQKLPESRNSCKYEVKFSEVAIFLVERKMGSSRRKFLTNLARSKGFRIEDVLSDAVTHVVAEDNSADELWQWLQNSSLGDLSKIEVLDISWFTECMGAGKPVQVEARHCLVKSCPVIDQYLEPSTVETVSQYACQRRTTMENHNQIFTDAFAILAENAEFNESEGPCLAFMRAASLLKSLPHAISSSKDLEGLPCLGDQTKAVIEDILEYGQCSKVQDVLCDDRYQTIKLFTSVFGVGLKTAEKWYRKGFHSLEEVQADNAIHFTKMQKAGFLYYDDISAAVCKAEAQAIGQIVEETVRLIAPDAIVTLTGGFRRGKECGHDVDFLITTPEMGKEVWLLNRLINRLQNQGILLYYDIVESTFDKTRLPCRKFEAMDHFQKCFAIIKLKKELAAGRVQKDWKAIRVDFVAPPVDNFAFALLGWTGSRQFERDLRRFARHERKMLLDNHALYDKTKKYLKKKTTNNYLALNDVCSDLSEWHYKG
B1: the “performance in adding 3′-O-azidomethyl dTTP and 3′-O-azidomethyl dCTP compared to Bos taurus TdT” value in series [1] was “consistently perform better compared to Bos taurus TdT”.

B2: Sarcophilus harrisii TdT: terminal deoxynucleotidyl transferase sequence from Sarcophilus harrisii (UniProt: G3VQ55) (protein, listed as Sarcophilus harrisii)
chain: MHRIRTTDSDHGKKRQKKMDAISSKLYEIKFHEFVLFILEKKMGATRRTFLMDLARKKGFRVESELSNSVTHIVAENNSGSDVLAWLEAHKLETTAHFELLDVSWLIECMKVGKPVDTKGKYQLVESSIASANPDPNEGMLKIQSPAMNAISPYACQRRTTLNNHNQRFTDAFEILAKNYEFRENHGHCLTFLRATSVLKCLPFAIVSMKDAEGLPWIGDEVKGIMEEIIEDGQSLEVQAVLNDERYQAFKLFTSVFGVGLKTAEKWYRMGFRTLSKIQSDKSLKFTKMQKAGFLYYEDLISCVSKAEADAVSLIVKEAVWTFLPDALITITGGFRRGKEFGHDVDFLITSPGGEKEQVDQLLQKVTNLWEKQGLLLYYDLMESTFEDLKLPSRKVDALDHFQKCFLILKLYCQRGDRSKWEGPEGSNGLQTKNWKAIRVDLVVCPYDRYAYALLGWSGSRQFERDLRRYATHEKKMMLDNHALYDKTKRTFLKAESEEEIFSHLGLEYIEPWERNA
For B2, the “performance in adding 3′-O-azidomethyl dTTP and 3′-O-azidomethyl dCTP compared to Bos taurus TdT” value in series [1] was “consistently perform better compared to Bos taurus TdT”.

B3: Bos taurus TdT: commercially available terminal deoxynucleotidyl transferase from Bos taurus (UniProt: P06526) (protein, listed as Bos taurus)
chain: MDPLCTASSGPRKKRPRQVGASMASPPHDIKFQNLVLFILEKKMGTTRRNFLMELARRKGFRVENELSDSVTHIVAENNSGSEVLEWLQVQNIRASSQLELLDVSWLIESMGAGKPVEITGKHQLVVRTDYSATPNPGFQKTPPLAVKKISQYACQRKTTLNNYNHIFTDAFEILAENSEFKENEVSYVTFMRAASVLKSLPFTIISMKDTEGIPCLGDKVKCIIEEIIEDGESSEVKAVLNDERYQSFKLFTSVFGVGLKTSEKWFRMGFRSLSKIMSDKTLKFTKMQKAGFLYYEDLVSCVTRAEAEAVGVLVKEAVWAFLPDAFVTMTGGFRRGKKIGHDVDFLITSPGSAEDEEQLLPKVINLWEKKGLLLYYDLVESTFEKFKLPSRQVDTLDHFQKCFLILKLHHQRVDSSKSNQQEGKTWKAIRVDLVMCPYENRAFALLGWTGSRQFERDIRRYATHERKMMLDNHALYDKTKRVFLKAESEEEIFAHLGLDYIEPWERNA
Take B3: the “ability to add 3′-O reversibly terminated (blocked) nucleotide triphosphates” value is “only efficiently adds irreversibly blocked nucleotides” in series [1] and “unable to add 3′-O-terminated nucleotide triphosphates in a quantitative fashion” in series [1] (listed as recombinant TdT sourced from calf thymus).

B4: engineered variant (SEQ ID NO: 8): variant of SEQ ID NO: 2 engineered for improved activity by alteration of the amino acid sequence (protein)
chain: MLHIPIFPPIKKRQKLPESRNSCKYEVKFSEVAIFLVERKMGSSRRKFLTNLARSKGFRIEDVLSDAVTHVVAENNSADELLQWLQNSSLGDLSKIEVLDISWFTECMGAGKPVQVEARHCLVKSCPVIDQYLEPSTVETVSQYACQRRTTMENHNQIFTDAFAILAENAEFNESEGPCLAFMRAASLLKSLPHAISSSKDLEGLPCLGDQTKAVIEDILEYGQCSKVQDVLCDDRYQTIKLFTSVFGVGLRTAEKWYRKGFHSLEEVQADNAIHFTKMQKAGFLYYDDISAAVCKAEAQAIGQIVEETVRLIAPDAIVTLTGGFRRGKECGHDVDFLITTPEMGKEVWLLNRLINRLQNQGILLYYDIVESTFDKTRLPCRKFEAMDHFQKCFAIIKLKKELAAGRVQKDWKAIRVDFVAPPVDNFAFALLGWTGSRQFERDLRRFARHERKMLLDNHALYDKTKKIFLPAKTEEDIFAHLGLDYIDPWQRNA
As for B4, the “conversion of initiator strand of length n to n+1 versus wild-type Lepisosteus oculatus TdT” value in series [2] was “improved ability to convert the initiator strand of length n to a strand of length n+1”. In series [3], the “incorporation of 3′-reversibly blocked nucleotides versus Bos Taurus TdT” value is reported as “much better than Bos Taurus TdT” and the “incorporation of 3′-reversibly blocked nucleotides versus wild-type Lepisosteus oculatus TdT” value is given as “better than the wild-type Lepisosteus oculatus TdT”.
